{
  "source": "the supplement of paper PMC5998384",
  "key": {"HeLa Kyoto [1]": {"system": "HeLa Kyoto", "assay": "melting temperature (median over replicates), in situ; higher = more thermally stable"}, "HeLa Kyoto [2]": {"system": "HeLa Kyoto", "assay": "solubility in G1/S (NP-40 vs SDS abundance) (log2 ratio); higher = more soluble", "settings": "cell cycle stage: G1/S"}, "HeLa Kyoto [3]": {"system": "HeLa Kyoto", "assay": "solubility change mitosis vs G1/S (difference of NP-40 vs SDS log2 ratios) (log2 ratio difference); higher = more soluble in mitosis"}, "HeLa Kyoto [4]": {"system": "HeLa Kyoto", "assay": "thermal stability score vs G1/S (z-score of summed log2 fold changes over temperatures); higher = more thermally stable than in G1/S"}, "[5]": {"settings": "cell cycle stage: early G1 (4.5 h after nocodazole release)"}},
  "data": [
    {"substance": "MEALSRAGQEMSLAALKQHDPYITSIADLTGQVALYTFCPKANQWEKTDIEGTLFVYRRSASPYHGFTIVNRLNMHNLVEPVNKDLEFQLHEPFLLYRNASLSIYSIWFYDKNDCHRIAKLMADVVEEETRRSQQAARDKQSPSQANGCSDHRPIDILEMLSRAKDEYERNQMGDSNISSPGLQPSTQLSNLGSTETLEEMPSGSQDKSAPSGHKHLTVEELFGTSLPKEQPAVVGLDSEEMERLPGDASQKEPNSFLPFPFEQLGGAPQSETLGVPSAAHHSVQPEITTPVLITPASITQSNEKHAPTYTIPLSPVLSPTLPAEAPTAQVPPSLPRNSTMMQAVKTTPRQRSPLLNQPVPELSHASLIANQSPFRAPLNVTNTAGTSLPSVDLLQKLRLTPQHDQIQTQPLGKGAMVASFSPAAGQLATPESFIEPPSKTAAARVAASASLSNMVLAPLQSMQQNQDPEVFVQPKVLSSAIPVAGAPLVTATTTAVSSVLLAPSVFQQTVTRSSDLERKASSPSPLTIGTPESQRKPSIILSKSQLQDTLIHLIKNDSSFLSTLHEVYLQVLTKNKDNHNL [DCP1A]", "values": [
      {"measurement": "melting temperature", "setting": "HeLa Kyoto [1]; cell cycle stage: G1/S", "value": 50.5, "unit": "°C"},
      {"measurement": "melting temperature", "setting": "HeLa Kyoto [1]; cell cycle stage: mitosis", "value": 50.9, "unit": "°C"},
      {"measurement": "solubility in G1/S (log2)", "setting": "HeLa Kyoto [2]", "value": 0.265},
      {"measurement": "solubility change mitosis (log2)", "setting": "HeLa Kyoto [3]", "value": -0.0577},
      {"measurement": "thermal stability score", "setting": "HeLa Kyoto [4]; [5]", "value": -0.228},
      {"measurement": "thermal stability score", "setting": "HeLa Kyoto [4]; cell cycle stage: mitosis", "value": 1.27}
    ]},
    {"substance": "ZNF24", "values": [
      {"measurement": "melting temperature", "setting": "HeLa Kyoto [1]; cell cycle stage: mitosis", "value": 52.2, "unit": "°C"},
      {"measurement": "solubility in G1/S (log2)", "setting": "HeLa Kyoto [2]", "value": -0.217},
      {"measurement": "solubility change mitosis (log2)", "setting": "HeLa Kyoto [3]", "value": 0.265},
      {"measurement": "thermal stability score", "setting": "HeLa Kyoto [4]; [5]", "value": 1.15},
      {"measurement": "thermal stability score", "setting": "HeLa Kyoto [4]; cell cycle stage: mitosis", "value": 1.78}
    ]},
    {"substance": "MTSLMPGAGLLPIPTPNPLTTLGVSLSSLGAIPAAALDPNIATLGEIPQPPLMGNVDPSKIDEIRRTVYVGNLNSQTTTADQLLEFFKQVGEVKFVRMAGDETQPTRFAFVEFADQNSVPRALAFNGVMFGDRPLKINHSNNAIVKPPEMTPQAAAKELEEVMKRVREAQSFISAAIEPESGKSNERKGGRSRSHTRSKSRSSSKSHSRRKRSQSKHRSRSHNRSRSRQKDRRRSKSPHKKRSKSRERRKSRSRSHSRDKRKDTREKIKEKERVKEKDREKEREREKEREKEKERGKNKDRDKEREKDREKDKEKDREREREKEHEKDRDKEKEKEQDKEKEREKDRSKEIDEKRKKDKKSRTPPRSYNASRRSRSSSRERRRRRSRSSSRSPRTSKTIKRKSSRSPSPRSRNKKDKKREKERDHISERRERERSTSMRKSSNDRDGKEKLEKNSTSLKEKEHNKEPDSSVSKEVDDKDAPRTEENKIQHNGNCQLNEENLSTKTEAV [SREK1]", "values": [
      {"measurement": "melting temperature", "setting": "HeLa Kyoto [1]; cell cycle stage: G1/S", "value": 48.9, "unit": "°C"},
      {"measurement": "melting temperature", "setting": "HeLa Kyoto [1]; cell cycle stage: mitosis", "value": 50.6, "unit": "°C"},
      {"measurement": "solubility in G1/S (log2)", "setting": "HeLa Kyoto [2]", "value": -0.849},
      {"measurement": "solubility change mitosis (log2)", "setting": "HeLa Kyoto [3]", "value": 0.262},
      {"measurement": "thermal stability score", "setting": "HeLa Kyoto [4]; [5]", "value": 1.86},
      {"measurement": "thermal stability score", "setting": "HeLa Kyoto [4]; cell cycle stage: mitosis", "value": 4.67}
    ]},
    {"substance": "YES1", "values": [
      {"measurement": "melting temperature", "setting": "HeLa Kyoto [1]; cell cycle stage: G1/S", "value": 51.2, "unit": "°C"},
      {"measurement": "melting temperature", "setting": "HeLa Kyoto [1]; cell cycle stage: mitosis", "value": 50.9, "unit": "°C"},
      {"measurement": "solubility in G1/S (log2)", "setting": "HeLa Kyoto [2]", "value": -0.536},
      {"measurement": "solubility change mitosis (log2)", "setting": "HeLa Kyoto [3]", "value": 0.0165},
      {"measurement": "thermal stability score", "setting": "HeLa Kyoto [4]; [5]", "value": 0.418},
      {"measurement": "thermal stability score", "setting": "HeLa Kyoto [4]; cell cycle stage: mitosis", "value": 0.409}
    ]},
    {"substance": "MPLLGLLPRRAWASLLSQLLRPPCASCTGAVRCQSQVAEAVLTSQLKAHQEKPNFIIKTPKGTRDLSPQHMVVREKILDLVISCFKRHGAKGMDTPAFELKETLTEKYGEDSGLMYDLKDQGGELLSLRYDLTVPFARYLAMNKVKKMKRYHVGKVWRRESPTIVQGRYREFCQCDFDIAGQFDPMIPDAECLKIMCEILSGLQLGDFLIKVNDRRIVDGMFAVCGVPESKFRAICSSIDKLDKMAWKDVRHEMVVKKGLAPEVADRIGDYVQCHGGVSLVEQMFQDPRLSQNKQALEGLGDLKLLFEYLTLFGIADKISFDLSLARGLDYYTGVIYEAVLLQTPTQAGEEPLNVGSVAAGGRYDGLVGMFDPKGHKVPCVGLSIGVERIFYIVEQRMKTKGEKVRTTETQVFVATPQKNFLQERLKLIAELWDSGIKAEMLYKNNPKLLTQLHYCESTGIPLVVIIGEQELKEGVIKIRSVASREEVAIKRENFVAEIQKRLSES [HARS2]", "values": [
      {"measurement": "melting temperature", "setting": "HeLa Kyoto [1]; cell cycle stage: G1/S", "value": 53.6, "unit": "°C"},
      {"measurement": "melting temperature", "setting": "HeLa Kyoto [1]; cell cycle stage: mitosis", "value": 53.3, "unit": "°C"},
      {"measurement": "solubility in G1/S (log2)", "setting": "HeLa Kyoto [2]", "value": 0.0324},
      {"measurement": "solubility change mitosis (log2)", "setting": "HeLa Kyoto [3]", "value": -0.0551},
      {"measurement": "thermal stability score", "setting": "HeLa Kyoto [4]; [5]", "value": 2.43},
      {"measurement": "thermal stability score", "setting": "HeLa Kyoto [4]; cell cycle stage: mitosis", "value": 1.63}
    ]}
  ]
}
